Biological target: Integrin alpha-v beta-3 (UniProt P06756+P05106)
Assay: filter
Settings: BzdU replaces dT in the extended strand, HEPES, NaCl, KCl, MgCl2 buffer, 37 C

Sequence of Integrin alpha-v beta-3 (P06756 31-992, chain 1 of 2): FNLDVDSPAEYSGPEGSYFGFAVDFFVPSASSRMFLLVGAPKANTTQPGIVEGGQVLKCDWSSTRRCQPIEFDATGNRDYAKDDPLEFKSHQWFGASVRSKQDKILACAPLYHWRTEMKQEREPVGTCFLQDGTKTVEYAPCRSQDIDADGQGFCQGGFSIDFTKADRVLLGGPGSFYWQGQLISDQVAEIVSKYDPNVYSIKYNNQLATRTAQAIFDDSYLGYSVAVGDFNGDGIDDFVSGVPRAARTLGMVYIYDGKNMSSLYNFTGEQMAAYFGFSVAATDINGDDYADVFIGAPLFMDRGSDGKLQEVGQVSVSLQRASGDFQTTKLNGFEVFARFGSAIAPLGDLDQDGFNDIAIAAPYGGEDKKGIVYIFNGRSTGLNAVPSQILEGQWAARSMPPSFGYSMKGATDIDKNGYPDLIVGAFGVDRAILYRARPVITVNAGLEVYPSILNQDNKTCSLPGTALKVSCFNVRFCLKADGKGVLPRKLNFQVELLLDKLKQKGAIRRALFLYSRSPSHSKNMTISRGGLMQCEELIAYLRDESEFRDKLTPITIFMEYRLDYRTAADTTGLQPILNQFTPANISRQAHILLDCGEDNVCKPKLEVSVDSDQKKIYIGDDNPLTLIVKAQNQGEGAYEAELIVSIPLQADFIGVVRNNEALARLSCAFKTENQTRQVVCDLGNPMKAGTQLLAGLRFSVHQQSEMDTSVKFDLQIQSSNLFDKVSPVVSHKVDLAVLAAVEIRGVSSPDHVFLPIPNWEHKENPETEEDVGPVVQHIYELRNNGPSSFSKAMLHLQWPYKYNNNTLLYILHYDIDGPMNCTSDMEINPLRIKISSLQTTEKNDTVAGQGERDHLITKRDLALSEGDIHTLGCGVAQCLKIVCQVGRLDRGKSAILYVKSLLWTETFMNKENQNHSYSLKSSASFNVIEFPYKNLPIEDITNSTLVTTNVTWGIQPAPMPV
Sequence of Integrin alpha-v beta-3 (P05106 27-718, chain 2 of 2): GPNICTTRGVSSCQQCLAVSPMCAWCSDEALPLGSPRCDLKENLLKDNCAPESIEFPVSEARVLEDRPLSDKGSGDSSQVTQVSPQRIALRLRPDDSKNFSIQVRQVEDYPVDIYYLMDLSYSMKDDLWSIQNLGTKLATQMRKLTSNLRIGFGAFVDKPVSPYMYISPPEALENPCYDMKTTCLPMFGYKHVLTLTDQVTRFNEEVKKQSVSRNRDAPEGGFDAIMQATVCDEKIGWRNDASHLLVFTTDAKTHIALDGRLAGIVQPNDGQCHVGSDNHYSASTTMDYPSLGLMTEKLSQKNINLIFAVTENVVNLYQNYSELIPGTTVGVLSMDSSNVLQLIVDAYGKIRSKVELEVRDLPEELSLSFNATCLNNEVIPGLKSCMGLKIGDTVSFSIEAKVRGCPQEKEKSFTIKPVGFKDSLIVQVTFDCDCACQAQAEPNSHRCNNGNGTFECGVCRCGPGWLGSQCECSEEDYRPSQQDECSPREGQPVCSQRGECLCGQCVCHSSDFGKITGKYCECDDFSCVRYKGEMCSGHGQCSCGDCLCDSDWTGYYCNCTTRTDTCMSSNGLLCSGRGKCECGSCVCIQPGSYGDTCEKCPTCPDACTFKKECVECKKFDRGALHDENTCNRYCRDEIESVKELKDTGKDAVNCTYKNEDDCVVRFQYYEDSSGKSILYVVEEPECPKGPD

TCAGCCGCCAGCCAGTTCTGACCAGAGCACCACAGAG [Starting benzyl-dU random library]
Kd (n = random N40 [n positions 19 = modified dU], Bmax 3.23E-11, essentially no binding): 6.5 µM

TCAGCCGCCAGCCAGTTCTGACCAGAGCACCACAGAG [Round 8 SELEX pool]
Kd (n = selected N40 region [n positions 19 = modified dU], Bmax 0.45): 0.0433 µM
